From the RNAGym collection of RNA variant scans (doi:10.1073/pnas.2313332121)

B1: TPR t1 (parent)
chain: GACCAAUCUGCCCUCAGAGCUCGAGAACAUCUUCGGAUGCAGAGGAGGCAGGCUUCGGUGGCGCGAUAGCGCCAACGUCCUCAACCUCCAAUGCAUCCCACCACAUGAUGAUGCCUGAAGAGCCUUGGUUUUUUG

Variants of: B1
Test: polymerase ribozyme fitness, log enrichment relative to wild type (log ratio); higher = more active; in vitro selection for triplet polymerase activity
Procedure, shortened: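 Mutant libraries of each subunit of a heterodimeric triplet polymerase ribozyme were built by PCR and transcribed. Each library went through one round of in vitro selection in triplicate: annealing with biotinylated primer, partner subunit and triplets, frozen incubation at −7 °C, gel excision of extended constructs, streptavidin-bead capture and RT-PCR. Input and output libraries were Illumina-sequenced; only genotypes with ≥10 input reads and ≥1 read per output were kept. Fitness is log2(genotype enrichment/wild-type enrichment), using inverse-variance-weighted replicate averages.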

Variant	polymerase ribozyme fitness (log ratio)
C40G C114U C123U	-4.09
C104U G122A	0.442
C12U C34A U106A U112C G120C C124G G128A	-5.07
G19A U54C C73G C82G C114G G135A	-3.8
C13U C56U U81G A90G	-0.257
C53U G58C U81G C88A C89U G120C	-4.46
A2G A41U G120U	-1.2
C12A G36A U54A G57C C97A	-4.92
C11U G60A U106C G128C	-3.82
C124A	1.78
G45A U106C	-1.09
U81G C101A U106A	-2.9
U59A	0.0811
G10C A108C C114G	-5.74
A6U G71C	-0.895
U7A C72U A91C G122U	-2.12
C4A A37U G93A	-2.66
A6U A37U	-0.0542
A6U U109C C124A	-5.26
G69U U109C	-0.222
C13U G45A G60C	-0.761

Variant	polymerase ribozyme fitness (log ratio)
A2C C98U	-3.19
U14C C72U U78G C115U U116C	-3.05
G60U G61A A91U	-2.61
U7A U9C U67C C94G G113C	-7.09
U33G G63C	-5.3
U9A A43U A50C	-1.66
G42U G63A	-2.77
G48C C49A U129A	-3.14
C28G C56U	-2.39
A2U G110C	-6.03
U21A A91U	-2.43
G61A A74U G113U	-4.56
C12U C20G U106C	-3.81
G44A G69A C94U	-4.26
C13U A16C C101G	-2.83
C64U U129C	-0.708
A50U U81C C114A	-6.09
C73U C89G A100U	-2.03
G35A A74U C101U	-4.34
C72G C99A C114G U129A U132A G135C	-4.93
G39U G51U	-4.93

Variant	polymerase ribozyme fitness (log ratio)
G69U C115U	-0.095
C3U C15U G63A C101A	-3.66
G61U U81C C82U A121C	0.807
U7G C20U C115U	-2.32
C12A A41U A90C	-1.95
U54G	-0.214
A95C C123G U132A	-0.459
G48C C101U U109G	-5.98
C49A C72U G113A G128C	-4.46
C13A U38G G58U	-2.03
G44U G47U C72A U81G G117C	-6.49
C101A C115A A121C U125A	-0.732
G61C C73G U134G G135C	-1.75
A26C C28G G52U C88U G120A	-5.8
C49G A90U G113U	-3.57
G69U C72U C79U	-0.113
C88U G110A	-1.46
A37U G39C G57C G61A U106C G113C	-4.04
G10C A16C C53U G117U	-4.5
C49U C53A C101A G120A	-1.13
C3A C56A G135U	-2.75

Variant	polymerase ribozyme fitness (log ratio)
C85A	-1.96
G63C U109G	-3.42
C56U A119U	-0.819
A6U C12G C89G A105C U106G	-3.35
C8U G63U C102G C114A U125A	-6.46
C15U G110A	-2.25
C102A G120A A121C C124U	-0.193
C15G G57A U132C	-3.99
C70G A100C C123A	-4.49
C102A	-1.87
C34U G63U G69A A84G	-6.86
C22A G61U C115U G128C U131A U134C	-5.61
A111G A121C	0.741
A6U C56A A105G	-2.46
A2C C4U G10A G57C G61U	-2.37
C3A U21C U96C C124G	0.974
C40U A84U G117U C123G	-1.94
A16U A84U A100U C124A U129G	-0.308
U78C C88A U106G C114G	-3.35
C28G G39C C49U G69A	-6.04
U38G C64U A66C A90U A91C U132A	-3.61
